From article PMC5429695

Experiments:
[1] = molecular target: RfDoc1a, group 1a dockerin, thioredoxin A fusion, wild type (R. flavefaciens FD-1); experiment: ITC; 308 K; dockerin in the cell (stirred at 307 revolutions/min) titrated with 28 injections of 10 uL cohesin at 220 s intervals; proteins in 50 mM HEPES pH 7.5, 0.5 mM CaCl2, 0.5 mM TCEP; single-site model
[2] = molecular target: RfDoc1b, group 1b dockerin, thioredoxin A fusion, wild type (R. flavefaciens FD-1); experiment: as above

Ka [1] [M⁻¹]	dH [1] [kcal/mol]	stoichiometry N [1]	Ka [2] [M⁻¹]	dH [2] [kcal/mol]	stoichiometry N [2]	Substance
5.03e+08	-38.9	1	2.67e+07	-61.2	1	RfCohScaA, ScaA cohesin with C-terminal hexa-histidine tag (domain or fragment)
1.65e+06	-66.9	1				RfCohScaB3 E84A + H121A, C-terminal hexa-histidine tag (domain or fragment)
1.53e+07	-55	1				RfCohScaB3 E84A + N124A, C-terminal hexa-histidine tag (domain or fragment)
2.66e+07	-52.6	1				RfCohScaB3 H121A, C-terminal hexa-histidine tag (domain or fragment)
7.59e+06	-51.9	1				RfCohScaB3 L79A, C-terminal hexa-histidine tag (domain or fragment)
1.1e+08	-58.6	1				RfCohScaB3 N68A, C-terminal hexa-histidine tag (domain or fragment)
2.08e+07	-51.8	1				RfCohScaB3 N75A + E84A, C-terminal hexa-histidine tag (domain or fragment)
2.49e+06	-50.8	1				RfCohScaB3 N75A + H121A, C-terminal hexa-histidine tag (domain or fragment)

Continued, substance first:

Substance	Ka [1] [M⁻¹]	dH [1] [kcal/mol]	stoichiometry N [1]	Ka [2] [M⁻¹]	dH [2] [kcal/mol]	stoichiometry N [2]
RfCohScaB3 E84A, C-terminal hexa-histidine tag (domain or fragment)	3.62e+07	-55.5	1			
RfCohScaB3 H121A + N124A, C-terminal hexa-histidine tag (domain or fragment)	2.28e+06	-46.4	1			
RfCohScaB3 K77A, C-terminal hexa-histidine tag (domain or fragment)	4.23e+08	-57.4	1			
RfCohScaB3 N75A + N124A, C-terminal hexa-histidine tag (domain or fragment)	1.86e+06	-56.3	1			
RfCohScaB3 N75A, C-terminal hexa-histidine tag (domain or fragment)	9.09e+07	-52.7	1			
RfCohScaB3 N124A, C-terminal hexa-histidine tag (domain or fragment)	5.54e+07	-52.8	1			
